The source of these data is paper PMC5928105.

The assay addresses 20S proteasome core (mouse (endogenous in mouse retina)) (UniProt Q9Z2U0). The assay can be described thus: SEC; retinal lysates of WT or PA28α overexpressing mice on Superose-6 (Fig. 1) or Superose-6 Increase; 50 mM Tris-HCl pH 7.4, 40 mM NaCl, 5 mM MgCl2, 10% glycerol, 1 mM DTT, 1 mM ATP; 0.5 ml fractions western-blotted for β1 (20S), PSMD11 (19S) and PA28α (11S).
Sequence of UniProt Q9Z2U0 (Q9Z2U0 whole entry, looked up): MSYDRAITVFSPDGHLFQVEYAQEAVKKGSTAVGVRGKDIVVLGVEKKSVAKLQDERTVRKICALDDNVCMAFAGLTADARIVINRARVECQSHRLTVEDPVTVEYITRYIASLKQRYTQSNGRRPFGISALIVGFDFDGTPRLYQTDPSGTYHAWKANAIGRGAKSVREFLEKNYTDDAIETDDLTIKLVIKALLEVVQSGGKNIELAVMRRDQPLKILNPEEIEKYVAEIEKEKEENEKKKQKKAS

For the substance “19S proteasome cap (from UniProt Q8BG32 1-422; Q8BJY1 1-504; Q99JI4 1-389; Q3TXS7 1-953) (complex)”, the percent of 20S cores co-eluting with 19S caps is 45%.

For the substance “11S caps formed upon PA28α overexpression (homomeric, PA28α subunits alone) (from UniProt P97371 1-249) (complex)”, the percent of PA28α co-eluting with 20S was 2%.
